For eleven substances, IC50 results are on record in paper PMC6927032.

The target in the experiment is TglB (Pseudomonas syringae). The experiment in a line: fluorescence polarisation. In general terms: Polarisation of emitted light reports the rotation of a fluorescent probe.
Usually IC50 stands for the point on the concentration scale where inhibition reaches its midpoint. A higher IC50 goes with weaker potency. Substance TglA D40A (peptide) registered a 50% inhibitory concentration (IC50) of 15 µM.

TglA E42A (peptide) displayed an IC50 of 10.5 µM.

Turning to TglA E45A (peptide), the half-inhibitory concentration (IC50) was > 300 µM.

Turning to TglA F49A (peptide), the IC50 was 4.2 µM.

In turn, TglA I41A (peptide) showed a half-inhibitory concentration (IC50) of 32 µM.

TglA I44A (peptide): the concentration for half-maximal inhibition (IC50) came out at 24 µM.

Turning to TglA K47A (peptide), the IC50 came to 255 µM.

On to TglA S46A (peptide), for which the 50% inhibitory concentration (IC50) is 11 µM.

On to TglA V43A (peptide), for which the IC50 is 98 µM.

Substance TglA V48A (peptide) returned an IC50 of 113 µM.

WT TglA (peptide) returned an IC50 of 8 µM.
